This passage reports Peptide exchange results from patent US20220289816A1, “IMMUNOTHERAPY WITH B*07 RESTRICTED PEPTIDES AND COMBINATION OF PEPTIDES AGAINST CANCERS AND RELATED METHODS” (Immatics Biotechnologies GmbH, priority 2018, published 2022).

This test deals with HLA-B*07 (Homo sapiens, UniProt P01889). The experiment in a line: MHC binding assay (UV-ligand exchange, ELISA of stabilized MHC complexes). Particulars: peptide exchange yield on HLA-B*07, UV-ligand exchange. The procedure, abridged:
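Peptide–MHC complexes were made by UV-ligand exchange, in which a UV-cleavable peptide is replaced by the test peptide. Exchange yield was measured by ELISA of stabilized complexes on streptavidin-coated plates, using HRP anti-β2m detection (1 h, 37 °C), TMB substrate and absorbance at 450 nm.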
A general note: ELISA stands for enzyme-linked immunosorbent assay.
“307 (RPHQKGWLSI; listed as Homo sapiens) [compound 307]”: the Peptide exchange result is “+++ (>50 = +++)”.
As to “308 (RPDVVRTLL; listed as Homo sapiens) [compound 308]”, the Peptide exchange result was “++++ (>75% = ++++)”.
On to “309 (FAFYGGKSL; listed as Homo sapiens) [compound 309]”, for which the Peptide exchange entry is given as “+++ (>50 = +++)”.
As for “310 (SPGWAQTQL; listed as Homo sapiens) [compound 310]”, the entry is “++++ (>75% = ++++)”.
Next, “311 (APRLALDPDAL; listed as Homo sapiens) [compound 311]”: “++++ (>75% = ++++)”; “312 (SPSLQSSRESL; listed as Homo sapiens) [compound 312]”: “+++ (>50 = +++)”; “313 (VPLSSYVSI; listed as Homo sapiens) [compound 313]”: “++++ (>75% = ++++)”.
“314 (IALMKLAGPL; listed as Homo sapiens) [compound 314]”: the Peptide exchange entry was “++ (>20% = ++)”.
As for “315 (APVVFPAL; listed as Homo sapiens) [compound 315]”, the entry is “++++ (>75% = ++++)”; as for “316 (NPREPEKSL; listed as Homo sapiens) [compound 316]”, “+++ (>50 = +++)”; as for “317 (MPYNSAHHCVV; listed as Homo sapiens) [compound 317]”, “++++ (>75% = ++++)”.
As for “318 (TPISNTGVL; listed as Homo sapiens) [compound 318]”, the entry is “++++ (>75% = ++++)”; as for “319 (RPLDTFRVL; listed as Homo sapiens) [compound 319]”, “++++ (>75% = ++++)”; as for “320 (APMHIDRNIL; listed as Homo sapiens) [compound 320]”, “++++ (>75% = ++++)”.
Next, “321 (QPQQPGFFL; listed as Homo sapiens) [compound 321]”: “+++ (>50 = +++)”; “322 (RAVPVGSGL; listed as Homo sapiens) [compound 322]”: “+++ (>50 = +++)”; “323 (TPHGITDIL; listed as Homo sapiens) [compound 323]”: “++++ (>75% = ++++)”.
For the substance “324 (LPAPLRISL; listed as Homo sapiens) [compound 324]”, the Peptide exchange result is reported as “++++ (>75% = ++++)”.
As for “325 (SPRSNPVRL; listed as Homo sapiens) [compound 325]”, the entry is “++++ (>75% = ++++)”; as for “327 (GPRTTQSSVL; listed as Homo sapiens) [compound 327]”, “++++ (>75% = ++++)”; as for “328 (LPLHRGDLVI; listed as Homo sapiens) [compound 328]”, “+++ (>50 = +++)”.
As for “329 (QPANFIVLL; listed as Homo sapiens) [compound 329]”, the Peptide exchange result is “+++ (>50 = +++)”.
As for “330 (RPFSAIAEL; listed as Homo sapiens) [compound 330]”, the entry is “++++ (>75% = ++++)”; as for “331 (SPDSAILKL; listed as Homo sapiens) [compound 331]”, “+++ (>50 = +++)”.
As for “332 (SPYAGSTAF; listed as Homo sapiens) [compound 332]”, the entry is “++++ (>75% = ++++)”; as for “333 (SVLPRALSL; listed as Homo sapiens) [compound 333]”, “+++ (>50 = +++)”; as for “334 (YPLSLALHF; listed as Homo sapiens) [compound 334]”, “++++ (>75% = ++++)”.
Take “335 (VPPQNPRPSL; listed as Homo sapiens) [compound 335]”: the Peptide exchange result was “+++ (>50 = +++)”.
Consider “336 (YPLQGPGLLSV; listed as Homo sapiens) [compound 336]”, for which the Peptide exchange result is recorded as “+++ (>50 = +++)”.
